These results are taken from patent US20020197616A1 (REGENTS OF THE UNIVERSITY OF MICHIGAN, published 2002).

The target in data set [1] is T1, Nod2 (wild-type, HA-tagged) (human, UniProt Q9HC29 1-1040).
T1 construct: Expressed in HEK293T cells and tested in cell extracts by co-immunoprecipitation; also called Nod2a; wt Nod2; not shown: HA tag; the plasmid is named both pcDNA3-Nod2-HA and pcDNA3-HA-Nod2, so the end that carries the ta
As to the kind of experiment: co-immunoprecipitation, HEK293T extracts. An excerpt:
Proteins co-immunoprecipitated with anti-HA antibody were detected with anti-Flag antibody. […] Proteins in total lysate were detected by anti-Flag and anti-HA monoclonal antibody, respectively. […]

Data set [2] deals with the molecule itself. Briefly: method not described ('our observations'); self-association.

B1: Bcl-10 (other, UniProt O95999 1-233, looked up)
chain: MEPTAPSLTEEDLTEVKKDALENLRVYLCEKIIAERHFDHLRAKKILSREDTEEISCRTSSRKRAGKLLDYLQENPKGLDTLVESIRREKTQNFLIQKITDEVLKLRNIKLEHLKGLKCSSCEPFPDGATNNLSRSNSDESNFSEKLRASTVMYHPEGESSTTPFFSTNSSLNLPVLEVGRTENTIFSSTTLPRPGDPGAPPLPPDLQLEEEGTCANSSEMFLPLRSRTVSRQ
notes: Construct and tag not described
As for B1, in data set [1], the binding result is on record as “no binding”.

B2: Nod2 lacking the LRRs (1-744) (other)
chain: MGEEGGSASHDEEERASVLLGHSPGCEMCSQEAFQAQRSQLVELLVSGSLEGFESVLDWLLSWEVLSWEDYEGFHLLGQPLSHLARRLLDTVWNKGTWACQKLIAAAQEAQADSQSPKLHGCWDPHSLHPARDLQSHRPAIVRRLHSHVENMLDLAWERGFVSQYECDEIRLPIFTPSQRARRLLDLATVKANGLAAFLLQHVQELPVPLALPLEAATCKKYMAKLRTTVSAQSRFLSTYDGAETLCLEDIYTENVLEVWADVGMAGPPQKSPATLGLEELFSTPGHLNDDADTVLVVGEAGSGKSTLLQRLHLLWAAGQDFQEFLFVFPFSCRQLQCMAKPLSVRTLLFEHCCWPDVGQEDIFQLLLDHPDRVLLTFDGFDEFKFRFTDRERHCSPTDPTSVQTLLFNLLQGNLLKNARKVVTSRPAAVSAFLRKYIRTEFNLKGFSEQGIELYLRKRHHEPGVADRLIRLLQETSALHGLCHLPVFSWMVSKCHQELLLQEGGSPKTTTDMYLLILQHFLLHATPPDSASQGLGPSLLRGRLPTLLHLGRLALWGLGMCCYVFSAQQLQAAQVSPDDISLGFLVRAKGVVPGSTAPLEFLHITFQCFFAAFYLALSADVPPALLRHLFNCGRPGNSPMARLLPTMCIQASEGKDSSVAALLQKAEPHNLQITAAFLAGLLSREHWGLLAECQTSEKALLRRQACARWCLARSLRKHFHSIPPAAPGEAKSVHAMPGFIWLIR
notes: also called Nod2ΔLRR; Nod2 (1-744)
With B2, the binding result in data set [2] was “binds”.
